Results as given in the domain aggregation screens of Martell et al. (2025).

Experiment: soluble fraction after stress (log2 fold change); higher = more stays soluble; pooled small domains, quantitative proteomics
Settings: stress: 50 degC
Procedure, shortened: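 Pooled custom libraries of small protein domains were measured in a high-throughput format, with quantitative proteomics as the read-out. Each library was stressed at 50°C. Aggregation propensity is given as the base-two logarithm of the fold change in how much of each protein stays soluble after the stress. Higher values mean a larger share of the protein remains in solution.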

| Sequence | soluble fraction (log2) |
| --- | --- |
| HMGGKWSMPIIYILSKGKMRFKELERSVEGINTRMLVKELKNMEANGIVTREVFPTVPPTVEYALT | -0.922 |
| HMGGKYKGVIIGHLIDKTLRYNELQKLISHATPKMLIQQLKELEADGIIQRKLYPVVPPKTEYSLTERG | -0.754 |
| HMGGLAEGTKITLQNTVNVRASMGEDAEKIGTAYAGEKVTVIMSYAEGWTKVTWNDKTGYIKTSLL | -0.634 |
| HMGGLAHPASGEEMEHLFAHLEGELLKSGFLFPPDKAAGMMRNIRAMLTRADFTDQEVRTLRGMIVALSRG | -1.66 |
| HMGGNDALEIAKSNPQVIEVLGEPVTKDGMGSYSVNYKNGHKTSEATIPIEGPNGTATLHVKTSGSDDAL | 0.261 |
| HMGGNKILTWKTDAATTRNQVPINERKEGLEISYKNEERNWVAEKYVGTSFSDDKWGVDYNWNQD | 0.421 |
| HMGGPAGPDFTYTGDDLTRIDYDDGSYKVFTYDAGKLSQIDFTSGGTTTRKTFVYSGDTLIRVDQTI | -0.44 |
| HMGGPEPIPAQIREGDTVYVTKFKQLGLVLKISEDTAEVQIGPLRATVAKTELSKVDATATEHR | 0.158 |
| HMGGQFVKVEVIAQIFGVTVRRVQQLTQEGVVKTTEIPGEGRRYELVPTIKTYIQYLSDKAY | -4.01 |
| HMGGTFLVRILDPALNIRAQPSLTARINGVIRDKSVYTIVATSFEPKTQITWGKLKSGAGWISIGSKYVKK | -3.52 |
| HMGGVTVQNRETHVNSTVNVRSEQTTESERVALAYQGDAITQIESYENGWSKVEYKGLSGYVMTEYL | -0.181 |
| HMGGYLIGDVAQMVGLSRDALRFYEKKGIIRADKKENGYRYYSEDDIYRLMYILYHRKMNTSLEEIGGLMS | -0.739 |
| HMGHKKLTIELQDEIIVLPKELEKYNLTVSDDKTSLIYTYKSRGEKTGITDLLRDIKDAGLRLKDLITEQ | 0.434 |
| HMGHTVHAVPEAADRQRLDVFVGNLHPTISRAYIQKLSKEDQILVNGKPEKAGFKLRTGHSVSVPDMSE | 0.0769 |
| HMGIAEAKRVIVRTLHDVLGPEADFLTEKIDVAQTAAELRVHAEKYRDMLVDMGKPKKSAAFWEAFEAALP | -0.0544 |
| HMGIAKLLTEQEYKIALLAAERRTNAMIAEEMNLTENTVKTHLKHIFDKVGIAGNAKNKRHLLADMMNSER | -0.277 |
| HMGIDISAFSETALQVLRLQAAGYTAKEISEKLHITPRTVKYHASQNYRKLDAKNLVDAVQIAQALHI | -1.26 |
| HMGIEQVELASRVRDAVDSLPHHLREIILLSYFQKMSYNQIAETLQVPLGTVKSRLHAAVASFAQAWTQSS | -0.706 |
| HMGIFAQTTKWRDIYTVKKKDTIFGIANKYGLSLPELMEANPEMKQEGYMLQKGTTLFIPFASD | -0.483 |
| HMGIGSTLTDGVRVYASDDEIVVNAPAESDVRIFNAGGAQLYAGRVADVRVAVAKGLYVVTVDGRSTKITV | 0.00295 |
| HMGIILDWELFEQFADKLKRKKVDFVIEPYLRFEGRRGEQSTLFIKDPSGNYLEFKAFKNIDMLFEK | -0.874 |
| HMGIPIEAYHESLHRHYIDLWELLDTGKETLIDAEGNEVDKIHLLNAIRFNVNGMLHELLKE | -1.76 |
| HMGIQYVASGHYARMETDAQGVSRLFPPESGAPDESDRLAALSPEVLTRLILPLGDFAPEDVEEMAVD | 0.102 |
| HMGIRAFDPEAFDERLKEFFSMIAPYKKLDTRSLQPHFPHHAKEVAERIRQLAEAGKIKVDGFYISEL | -0.108 |
| HMGIRDIHITVNGESLKLSKKQNYIFVDIFDFYPFDLSILGGSKLITTINGEQAEFTSPLKDGDVVELYWK | -0.61 |
| HMGISNEETFLLEKMSSGRRYSRKELDNLMGFEKTKTIRLLGSLINKGLVVAEGVNRARRYIR | -1.12 |
| HMGISQAQAMQALRKLIEEEDKHTPLSDQTLMERLKAAGIPLARRTIAKYRESLGIPSAAQRK | -0.109 |
| HMGISVEVPDLKNMSVAEAGSLLKNSGLSYAVVDSDYVKTISPGKILDQNPGRGLRVKKGRIVYLTINSL | -1.37 |

| Sequence | soluble fraction (log2) |
| --- | --- |
| HMGITDHIYQDLKKRLENGNYPAGTRFPSESTLADEFSVNKMTMNKIVSMLAEQGYLIRGNRGAGTRVAEN | -0.0862 |
| HMGITPSIEMILEYFAFKESSETEANKFFNYYSSIGWLVGGKTKMKDWKASARNWIMNQNKFQ | -3.97 |
| HMGIVAPGTLKHLHAVGNSYYPDWETKRHELVTAVTKGRTSSSKELYEAEANRLITRIEELLMTAAQSV | -0.0132 |
| HMGIVTMPGQGSKMRFDFDATGDLPSSTSWRGMFAYANNTKRAYVSTGTTMGGYNGWRQLIAMDEYGNYQT | -0.0345 |
| HMGKEIEAPDFKNMTLKEAKIAAKEYKIRIKKGDEVVSEEVEKGRIVSQDPDAGTTIKTGSTVTVNISKGL | 0.126 |
| HMGKELSTVVVPDLTGLSVLEARNVLTKVGLQLTPSGAGIAFKQIPTPGTRLTLGATVTVYFVATGY | 0.0979 |
| HMGKELTVPDVVGQNYVSAQEKLIAGGFQVEVADSVYDSRYGRGVVVDQNPHKDTRVKPGRLIYVTVNA | -0.0999 |
| HMGKEWPTPDNVEEWKKLVKKARLWPIQADQAQSEETRERNRKKWELFVAYAKRFGYRAGIGETGKPFVNN | -0.443 |
| HMGKINEIVANNIAILRKKNRLSLEELGKLSGVSKSMLALIEKGDGNPTLGILWKIANGLGVPFDELTRRP | -0.0928 |
| HMGKLGENIKRIREGMGLSQRQFGELIGKSDSQIWSYENDRTDILASTLYKIAAVANVDFNNLMAGIIP | -0.925 |
| HMGKLYRDRYAPLEPDGARAGDRVFIISLEKEGTLERIDLPRKTATVLLGSSIRSTFPLDDLYQPRG | 0.0151 |
| HMGKMTSTLGVHIAAYRKEHGETVAQFASRSGVSVSSIRRIESGISDPSADLVWKISRHMGMTMDDLFKKM | -3.87 |
| HMGKNISEEDMLGYFKKIDLDYDAETKEVIAPTFRHDLFRLADLAEEVARFFGYDNIPTTLPSGEAT | 0.0416 |
| HMGKPAGLIRELGNHPEDEKPVTLNNGRFGPYVKHGKVMASLTKADSPDDITFDRAIELIAIKAEKMAAKG | 0.184 |
| HMGKPTPASQVATRWLTGNLPESLPVAGPAPSFEALARTVSTDLHPRSVLQELVRLGVAEEANGVVTLRRQ | -0.00643 |
| HMGKPVTMELLIPYSQGSLVHRISEAGEVAKTEYQNDGTYMQVTFTPSAKDHALMQEVASYRI | 0.184 |
| HMGKSDDSLAAEKFIQHVRKNGELSYEQAYRMVHAYFPDFRNFEGMVSGAVKSGYLILIQKSTGLFLRAKE | -0.882 |
| HMGKTEMPFSTFLTEVDKGNIVSVDIRGSEISGNFRDGKGFKTYSPNYPNLVEKLSAKGVAITAGPR | 0.187 |
| HMGKTKFTEMSALELKAYAELNNNSMHWVYRMLYIGGGDVGFRKGMKELGYSGKFIWMTLERLKKS | -1.32 |
| HMGKTTQEIEERSSTSTLTLTQTPKEIISVQGKKSDQSFFTNIQYTQNGKVIVPKQTGIYDTIKVVFTVSL | -1.2 |
| HMGKVLIYKPNMSVSDVAIRLGISNAEIIKRLMGLGVMTSINQTIDRDTIELVAMDLGFSIEN | -0.656 |
| HMGLAGVQSDVKVSFDGDLLVVTSDIARSFNLFAVDGRLIRSVNLIAGRNEIRGLERGFYLAEKQKIFV | -2.07 |
| HMGLAWTVEGRTVLLGRTADRIELYNVGGGLVALARESDRISAPGVGLYVVRVVSDGQSVSQKIWIT | -0.394 |
| HMGLDMSLEREQHRALREASQWYARLADEQVDSDAERAWRHWVAADEANQRAWQYIEAVSQRFDG | -0.315 |
| HMGLDNEGFERLRQKITRLLSEEALPVKELVDSFASKMRQEVLETLAFLQQEGVIEEKNGKLFLK | 0.0365 |
| HMGLIDNLTRIMEKKNISAYQLEKAGIVKQTTFTSWKKGTQPALDKIIKIMQYIEVTPNELFGY | -1.39 |
| HMGLKWVYYTNIEPDGNKINNQKLYDILKQKFVYPVIISRDELDSMELKDLTYDSYIDVEGRYFKPYNLD | -2.23 |
